Details in all cases: 20 nM; 72 h
Data set [1] has as its system MCF10A. The data set is described as follows: 5+ nucleoli phenotype percent effect (relative to siNT 0% and siKIF11 100%); higher = more cells with five or more nucleoli. On the procedure: (§1)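 After 72 h, cells were fixed and stained with Hoechst and anti-fibrillarin, and nucleoli per nucleus were counted with CellProfiler. Values are plate-adjusted percent effect for the one-nucleolus and 5+ nucleoli phenotypes, normalised to siNT (0%) and to the positive controls siNOL11 or siKIF11 (100%), as the mean of biological triplicates. Percent viability is the nuclei count relative to siNT.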

In data set [2] the test system is MCF10A. Nature of the data set: percent viability (nuclei count relative to siNT); higher = more viable cells. How it is done:
as §1

Data set [3] relates to MCF10A. The data set is described as follows: one-nucleolus phenotype percent effect (relative to siNT 0% and siNOL11 100%); higher = more cells with one nucleolus (ribosome biogenesis inhibition). On the procedure: as §1

Values joined by “and” are separate entries in the source; they are usually repeats but may differ in a detail not shown here. Equal values may be shown once.

Take “AAAAGUAAUUGCGAGUUUUACC [hsa-miR-548a-5p]”: the “5+ nucleoli phenotype percent effect” value in the data set with MCF10A [1] stood at 9.73%. Moreover, in the data set on MCF10A [2], the percent viability came to 172%. Also, in the data set with MCF10A [3], the “one-nucleolus phenotype percent effect” value is -20.8%.
The corresponding values for AAAAGUAAUUGCGGAUUUUGCC [hsa-miR-548i] are 20.3%, 140% and -17.1%.
As for “AAAAGUAAUUGCGGGUUUUGCC [hsa-miR-548as-5p]”, the “5+ nucleoli phenotype percent effect” value with MCF10A [1] stood at 35.9%. The percent viability with MCF10A [2] stood at 160%. Also, in the data set with MCF10A [3], the “one-nucleolus phenotype percent effect” value was -24.9%.
For the sequence AAAAGUAAUUGCGGUCUUU [hsa-miR-548ap-5p], the “5+ nucleoli phenotype percent effect” value with MCF10A [1] came to 39.1%. Moreover, the percent viability in the data set with MCF10A [2] was 121%. The “one-nucleolus phenotype percent effect” value in the data set with MCF10A [3] is -19%.
For the sequence AAAAGUAAUUGCGGUCUUUGGU [hsa-miR-548j], in the data set with MCF10A [1], the “5+ nucleoli phenotype percent effect” value came out at 17%. Besides, the percent viability in the data set on MCF10A [2] worked out at 85.9%. In addition, the “one-nucleolus phenotype percent effect” value in the data set with MCF10A [3] is -14.6%.
Regarding “AAAAGUAAUUGCGGUUUUUGC [hsa-miR-548au-5p]”, in the data set with MCF10A [1], the “5+ nucleoli phenotype percent effect” value is 42.7%. Moreover, the percent viability in the data set on MCF10A [2] stood at 100%. Moreover, in the data set on MCF10A [3], the “one-nucleolus phenotype percent effect” value is -19.4%.
For “AAAAGUAAUUGCGGUUUUUGCC [hsa-miR-548am-5p]”, in that order: 39.6%, 139% and -17.6%.
The corresponding values for “AAAAGUAAUUGCGGUUUUUGCC [hsa-miR-548c-5p]” are 16.9%, 166% and -19.1%.
For “AAAAGUAAUUGCGGUUUUUGCC [hsa-miR-548o-5p]”, in that order: 43.1%, 119% and -26.8%.
Regarding AAAAGUAAUUGUGGAUUUUGCU [hsa-miR-548ab], in the data set with MCF10A [1], the “5+ nucleoli phenotype percent effect” value was found to be 30.5%. In addition, the percent viability in the data set on MCF10A [2] is 67.8%. Further, the “one-nucleolus phenotype percent effect” value in the data set with MCF10A [3] was -19.3%.
The corresponding values for “AAAAGUAAUUGUGGUUUUGGCC [hsa-miR-548b-5p]” are 36.5%, 131% and -24.3%.
The corresponding values for “AAAAGUAAUUGUGGUUUUUGC [hsa-miR-548ay-5p]” are 28.7%, 134% and -28.5%.
Take “AAAAGUAAUUGUGGUUUUUGCC [hsa-miR-548d-5p]”: the “5+ nucleoli phenotype percent effect” value with MCF10A [1] turned out to be 49.4%. For the same sequence, the percent viability in the data set on MCF10A [2] was 95.4%. Further, the “one-nucleolus phenotype percent effect” value in the data set with MCF10A [3] was -15.4%.
Consider AAAAGUACUUGCGGAUUU [hsa-miR-548av-5p], for which the “5+ nucleoli phenotype percent effect” value in the data set with MCF10A [1] was 9.21%. In addition, in the data set on MCF10A [2], the percent viability was found to be 77.9%. The “one-nucleolus phenotype percent effect” value in the data set on MCF10A [3] was -23.4%.
For AAAAGUACUUGCGGAUUUUGCU [hsa-miR-548k], in that order: 36.4%, 75.4% and -15.1%.
The corresponding values for AAAAGUAUUUGCGGGUUUUGUC [hsa-miR-548l] are 30%, 127% and -20.8%.
The corresponding values for AAAAGUGAUUGCAGUGUUUG [hsa-miR-548ah-5p] are 17.4%, 114% and -15.3%.
As for “AAAAGUGCUUACAGUGCAGGUAG [hsa-miR-106a-5p]”, the “5+ nucleoli phenotype percent effect” value with MCF10A [1] was determined as 22.1%. Besides, the percent viability in the data set on MCF10A [2] was 48.8%. Besides, the “one-nucleolus phenotype percent effect” value in the data set on MCF10A [3] was -17.6%.
For “AAAAGUUAUUGCGGUUUUGGCU [hsa-miR-548at-5p]”, in that order: 15%, 54.1% and -14.7%.
The corresponding values for AAAAUGAAAUGAGCCCAGCCCA [hsa-miR-3646] are 21.9%, 63.5% and -19.1%.
With “AAAAUGGUGCCCUAGUGACUACA [hsa-miR-224-3p]”, the “5+ nucleoli phenotype percent effect” value with MCF10A [1] is -15%. For the same sequence, the percent viability with MCF10A [2] came out at 13.9%. Moreover, the “one-nucleolus phenotype percent effect” value in the data set on MCF10A [3] was 12.8%.
For AAAAUGGUUCCCUUUAGAGUGU [hsa-miR-522-3p], in that order: 28.6%, 66.3% and -12.4%.
Consider AAAAUUUCUUUCACUACUUAG [hsa-miR-3606-3p], for which, in the data set on MCF10A [1], the “5+ nucleoli phenotype percent effect” value stood at 41.5%. Further, the percent viability in the data set with MCF10A [2] turned out to be 54%. Besides, the “one-nucleolus phenotype percent effect” value with MCF10A [3] was -25.7%.
For GCGGCGAGUCCGACUCAU [hsa-miR-4285], the “5+ nucleoli phenotype percent effect” value with MCF10A [1] was 32.6% and 20.7%. Besides, the “one-nucleolus phenotype percent effect” value with MCF10A [3] was -17.6% and -20.2%.

Source of the values: the supplement of paper PMC10899765.
